# Measurements taken from patent US20240116985A1 (published 2024).
# Starred links: 1 amine or outer side, 2 acyl side, 3 side chain; linkers in the order of their positions; H or OH if unused. Positions of bridges follow the written chain, without caps; N, C: chain ends. Non-standard residues stand in square brackets, D forms with d. Primed or numbered codes have the meaning given here. *: point of attachment. PyrS2″ = (S)-3-amino-1-((pent-4-en-1-yloxy)carbonyl)pyrrolidine-3-carboxylic acid (stapling residue), C=CCCCOC(=O)N1CC[C@@](N[*:1])(C(=O)[*:2])C1; B5(16) = 2-amino-2-(pent-4-en-1-yl)hept-6-enoic acid = 2,2-bis(4-pentenyl)glycine (stitching residue), C=CCCCC(CCCC=C)(N[*:1])C(=O)[*:2]; B5(17) = 2,2-bis(4-pentenyl)glycine = 2-amino-2-(pent-4-en-1-yl)hept-6-enoic acid, stitching residue, C=CCCCC(CCCC=C)(N[*:1])C(=O)[*:2]; B5(4) = 2,2-bis(4-pentenyl)glycine = 2-amino-2-(pent-4-en-1-yl)hept-6-enoic acid (stitching residue), C=CCCCC(CCCC=C)(N[*:1])C(=O)[*:2]; B5(21) = 2-amino-2-(pent-4-en-1-yl)hept-6-enoic acid, bis(4-pentenyl)glycine (stitching residue), C=CCCCC(CCCC=C)(N[*:1])C(=O)[*:2]; SeN = (S)-5-(((allyloxy)carbonyl)(methyl)amino)-2-amino-2-methylpentanoic acid, C=CCOC(=O)N(C)CCC[C@](C)(N[*:1])C(=O)[*:2]; SdN = (S)-4-(((allyloxy)carbonyl)(methyl)amino)-2-amino-2-methylbutanoic acid, C=CCOC(=O)N(C)CC[C@](C)(N[*:1])C(=O)[*:2]; (EtSSEt)AspE = (S)-2-amino-4-(2-(ethyldisulfaneyl)ethoxy)-4-oxobutanoic acid, CCSSCCOC(=O)C[C@H](N[*:1])C(=O)[*:2]; B5(3) = 2,2-bis(4-pentenyl)glycine (stitching residue), C=CCCCC(CCCC=C)(N[*:1])C(=O)[*:2]; S3 = (S)-2-amino-2-methylpent-4-enoic acid, C=CC[C@](C)(N[*:1])C(=O)[*:2]; Phe(2-Cl) = N[C@@H](Cc1ccccc1Cl)C(=O)O; Bta = N[C@@H](Cc1csc2ccccc12)C(=O)O; αAllylPro = C=CC[C@@]1(C(=O)O)CCCN1; tBuAla = CC(C)(C)C[C@H](N)C(=O)O; 3Thi = N[C@@H](Cc1ccsc1)C(=O)O; S8 = C=CCCCCCC[C@](C)(N)C(=O)O; Leu(ol) = CC(C)C[C@H](N)CO; Alaol = C[C@@H](CO)N*; Aib = CC(C)(N)C(=O)O
# B1: I-64: Ac-Ala-Asp-Ile-RdN-Asp-Asp-Ala-Ala-Phe-Gln-S7-Phe-Trp-His-NH2 (stapled peptide) (peptide)
# peptide: ADIXDDAAFQXFWH
# modifications: not fully specified; N-terminal acetyl (Ac); C-terminal amide (NH2); RdN at position 4 and S7 at position 11 (non-natural olefin amino acids); stapled by olefin metathesis RdN-S7
# notes: Same description as I-65
# B2: I-52: Ac-PL3-Asp-Ala-B5-Asp-Asp-Ala-Ala-Phe-Val-S8-Phe-Trp-Gln-NH2 (stapled peptide) (peptide)
# peptide: Ac-[αAllylPro]DA[B5(21)]DDAAFV[S8]FWQ-NH2
# modifications: staple 1-4, 4-11
# notes: Tested as stapled peptide composition
# B3: I-55: Ac-PL3-Asp-Ala-B5-Asp-Asp-Ala-Ala-Phe-Val-SdN-Phe-Trp-Gln-NH2 (stapled peptide) (peptide)
# peptide: Ac-[αAllylPro]DA[B5(17)]DDAAFV[SdN]FWQ-NH2
# modifications: staple 1-4, 4-11
# notes: as for B2
# B4: I-53: Ac-PL3-Asp-Ala-B5-Asp-Asp-Ala-Ala-Phe-Val-SeN-Phe-Trp-Gln-NH2 (stapled peptide) (peptide)
# peptide: Ac-[αAllylPro]DA[B5(21)]DDAAFV[SeN]FWQ-NH2
# modifications: staple 1-4, 4-11
# notes: Same description as I-54
# B5: I-54: Ac-PL3-Asp-Ala-B5-Asp-Asp-Ala-Ala-Phe-Val-SeN-Phe-Trp-Gln-NH2 (stapled peptide) (peptide)
# peptide: Ac-[αAllylPro]DA[B5(4)]DDAAFV[SeN]FWQ-NH2
# modifications: staple 1-4, 4-11; not fully specified; printed as Ac-PL3-Asp-Ala-B5-Asp-Asp-Ala-Ala-Phe-Val-SeN-Phe-Trp-Gln-NH2
# notes: Same description as I-53
# B6: I-1081 (peptide)
# peptide: Ac-[αAllylPro]D[tBuAla][B5(3)]DDAAFN[PyrS2″][Phe(2-Cl)][Bta]-Alaol
# modifications: staple 1-4, 4-11
# B7: I-1079 (peptide)
# peptide: Ac-[αAllylPro]D[tBuAla][B5(4)]DDAAFN[PyrS2″][Phe(2-Cl)][Bta]Q-NHEt
# modifications: staple 1-4, 4-11
# B8: I-1080 (peptide)
# peptide: Ac-[αAllylPro]D[tBuAla][B5(4)]DDAAFN[PyrS2″][Phe(2-Cl)][Bta][Leu(ol)]
# modifications: staple 1-4, 4-11
# B9: I-1043 (peptide)
# peptide: Ac-[αAllylPro]DF[B5(16)]DDAAFT[PyrS2″][Phe(2-Cl)][Bta]Q-NH2
# modifications: staple 1-4, 4-11
# notes: Stapled (stitched) peptide composition
# B10: I-1049 (peptide)
# peptide: Ac-[αAllylPro]DF[B5(4)]DDAAFT[PyrS2″][Phe(2-Cl)][Bta]S-NH2
# modifications: staple 1-4, 4-11
# notes: as for B9
# B11: I-1980 (peptide)
# peptide: Ac-[αAllylPro]D[tBuAla][S3]DDAAFL[Aib][3Thi][Bta]Q-NH2
# modifications: staple 1-4
# B12: I-1963 (peptide)
# peptide: Ac-[αAllylPro][(EtSSEt)AspE][tBuAla][B5(4)]DDAAFL[PyrS2″][3Thi][Bta]Q-NH2
# modifications: staple 1-4, 4-11
# Molecular target: T1, full-length beta-Catenin (Uniprot ID P35222) (Homo sapiens (Human), UniProt P35222 1-781)
# T1 construct: The assay protocol says 'full-length'; also called bCat; B-Catenin
# T1 sequence: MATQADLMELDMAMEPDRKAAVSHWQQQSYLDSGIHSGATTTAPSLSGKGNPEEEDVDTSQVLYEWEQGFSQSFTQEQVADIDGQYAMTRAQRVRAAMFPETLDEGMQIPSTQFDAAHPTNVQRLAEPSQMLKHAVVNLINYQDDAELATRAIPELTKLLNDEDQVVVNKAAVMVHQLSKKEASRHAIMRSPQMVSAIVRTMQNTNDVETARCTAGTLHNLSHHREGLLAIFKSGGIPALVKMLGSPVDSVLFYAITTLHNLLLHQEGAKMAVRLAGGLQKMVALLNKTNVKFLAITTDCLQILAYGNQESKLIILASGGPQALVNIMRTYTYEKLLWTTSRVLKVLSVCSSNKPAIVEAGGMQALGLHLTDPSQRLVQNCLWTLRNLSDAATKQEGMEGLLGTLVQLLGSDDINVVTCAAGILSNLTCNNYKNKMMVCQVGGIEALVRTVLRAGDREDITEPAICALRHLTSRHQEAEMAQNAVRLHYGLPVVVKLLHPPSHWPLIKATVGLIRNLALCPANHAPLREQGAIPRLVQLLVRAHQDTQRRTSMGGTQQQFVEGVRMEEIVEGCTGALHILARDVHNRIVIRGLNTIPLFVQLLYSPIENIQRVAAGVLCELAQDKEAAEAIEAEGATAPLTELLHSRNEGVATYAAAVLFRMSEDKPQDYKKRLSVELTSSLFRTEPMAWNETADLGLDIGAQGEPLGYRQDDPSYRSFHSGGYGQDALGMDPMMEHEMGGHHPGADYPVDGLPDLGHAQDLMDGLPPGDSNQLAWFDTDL
# Test: fluorescence polarization competition; full-length beta-catenin, 5FAM-TCF4(10-53) probe as competitor
# Procedure: (§1) The plate was incubated protected from light for 60 minutes at 20° C. prior to read. Reads were performed on a CLARIOstar plate reader (BMG Labtech) in duplicate, and data were fitted to a 1:1 binding model with hill slope using an in-house script. All provided concentrations are final concentrations.
row,Binder,IC50 [µM]
1,B1,4.25
2,B2,3.2
3,B3,5
4,B4,5
5,B5,3.19

# Molecular target: T2, beta-catenin in DLD1 TCF/LEF luciferase reporter cells (UniProt P35222 1-781)
# T2 sequence (looked up): T1 sequence
# Test: cell-based or functional assay
row,Binder,DLD1 reporter assay Abs IC50 [µM]
1,B6,10
2,B7,14.5
3,B8,17.2

# Molecular target: T3, B-cat-Halo (beta-catenin HaloTag NanoBRET construct expressed in HEK293 cells) (UniProt P35222 1-781)
# T3 sequence (looked up): T1 sequence
# Test: cell-based or functional assay
row,Binder,NanoBRET Abs IC50 [µM]
1,B6,16.7
2,B7,19.7
3,B8,> 20

# Molecular target: T4, full-length beta-Catenin (Uniprot ID P35222) (Homo sapiens (Human), UniProt P35222 2-781)
# T4 construct: Used at 10 nM in the FP probe solution as 'full-length'; Also used here for the endogenous beta-catenin of the DLD1 TCF/LEF reporter cells (functional rows); also called bCat; B-Catenin
# T4 sequence: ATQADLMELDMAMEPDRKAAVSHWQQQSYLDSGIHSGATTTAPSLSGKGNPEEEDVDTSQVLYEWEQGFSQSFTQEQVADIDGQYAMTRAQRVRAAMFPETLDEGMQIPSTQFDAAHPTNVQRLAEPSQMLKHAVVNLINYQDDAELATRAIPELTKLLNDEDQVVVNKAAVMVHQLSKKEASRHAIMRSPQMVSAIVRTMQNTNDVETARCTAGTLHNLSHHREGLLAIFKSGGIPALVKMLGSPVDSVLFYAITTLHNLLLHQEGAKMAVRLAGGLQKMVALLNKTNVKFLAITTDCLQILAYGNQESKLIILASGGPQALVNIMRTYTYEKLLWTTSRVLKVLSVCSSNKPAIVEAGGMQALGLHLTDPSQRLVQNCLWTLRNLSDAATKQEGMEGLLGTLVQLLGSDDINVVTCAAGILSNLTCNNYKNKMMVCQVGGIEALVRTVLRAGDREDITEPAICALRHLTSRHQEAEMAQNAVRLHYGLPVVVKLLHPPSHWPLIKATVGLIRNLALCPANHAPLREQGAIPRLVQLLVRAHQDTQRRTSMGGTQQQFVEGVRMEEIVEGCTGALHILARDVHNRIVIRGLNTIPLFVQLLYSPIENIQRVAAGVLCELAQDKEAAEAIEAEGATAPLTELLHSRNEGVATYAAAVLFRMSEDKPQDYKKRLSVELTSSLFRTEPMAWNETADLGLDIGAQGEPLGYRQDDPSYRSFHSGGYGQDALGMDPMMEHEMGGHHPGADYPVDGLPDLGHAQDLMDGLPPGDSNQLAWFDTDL
# Test: fluorescence polarization competition; 10 nM full-length beta-catenin + 10 nM 5FAM-TCF4 10-53 as competitor probe
# Procedure: as §1
row,Binder,EC50 [µM]
1,B9,0.012
2,B10,0.006

# Molecular target: T5, B-cat-Halo (beta-catenin HaloTag Nano-BRET construct) (UniProt P35222 1-781)
# T5 sequence (looked up): T1 sequence
# Test: cell-based or functional assay
row,Binder,NanoBRET Abs IC50 [µM]
1,B11,> 20
2,B12,25.6
